The record followed here is patent publication US20240270826A1.

For assay [1], the target named is SARS-CoV-2 spike protein S on live virus, Alpha variant (SARS-CoV-2 (Alpha variant)) (UniProt P0DTC2). As to the kind of experiment: cell-based or functional assay.
Assay [2] deals with Human SARS-CoV-2 Delta (B.1.617.2) S (SARS-CoV-2 (Delta variant)) (UniProt P0DTC2). Nature of the assay: flow cytometry SVNA: VHH-Fc inhibits S binding to ACE2 on Vero E6 cells.
Assay [3] has as its target Human SARS-CoV-2 Gamma (P.1) S (SARS-CoV-2 (Gamma variant)) (UniProt P0DTC2). The assay is described as above.
Assay [4] has as its target Human SARS-CoV-2 Kappa (B.1.617.1) S (SARS-CoV-2 (Kappa variant)) (UniProt P0DTC2). The description is as above.

As a reminder, the IC50 is the concentration at which inhibition is half-maximal. High values mean a need for much substance, low ones inhibition by little substance.

VHH-72 VHH-Fc (Fc fusion) came in with an LVNA IC50 in assay [1] of 1.86 nM. Further, the IC50 worked out at 10.5 nM in assay [2], 3.3 nM in assay [3] and 8.5 nM in assay [4].
